Measured values from US20050164166A1 (US Dept. of Health and Human Services, published 2005).

What was measured:
Test in all cases: cell-based or functional assay
Env US005.11 (clade B) = Env US005.11 (clade B) (HIV-1)
Env BR019.4 (clade F/B) = Env BR019.4 (clade F/B) (HIV-1)
Env UG975.10 (clade G) = Env UG975.10 (clade G) (HIV-1)
Env UG037.8 (clade A) = Env UG037.8 (clade A) (HIV-1)
Env TH022.4 (clade EA) = Env TH022.4 (clade EA) (HIV-1)
Env RW020.5 (clade A) = Env RW020.5 (clade A) (HIV-1)
Env BR025.9 (clade C) = Env BR025.9 (clade C) (HIV-1)
Env US715.6 (clade B) = Env US715.6 (clade B) (HIV-1)
Env NL4-3 (clade B) = Env NL4-3 (clade B) (HIV-1)
Env 89.6 (clade B) = Env 89.6 (clade B) (HIV-1, UniProt Q73372 32-853)
Env HT593.1 (clade B) = Env HT593.1 (clade B) (HIV-1)

| Binder | % of fusion inhibition (cell-cell fusion assay, syncytia count, antibody at 50 ug/ml) (Env US005.11 (clade B)) [%] | % of fusion inhibition (cell-cell fusion assay, syncytia count, antibody at 50 ug/ml) (Env BR019.4 (clade F/B)) [%] | % of fusion inhibition (cell-cell fusion assay, syncytia count, antibody at 50 ug/ml) (Env UG975.10 (clade G)) [%] | % of fusion inhibition (cell-cell fusion assay, syncytia count, antibody at 50 ug/ml) (Env UG037.8 (clade A)) [%] | % of fusion inhibition (cell-cell fusion assay, syncytia count, antibody at 50 ug/ml) (Env TH022.4 (clade EA)) [%] | % of fusion inhibition (cell-cell fusion assay, syncytia count, antibody at 50 ug/ml) (Env RW020.5 (clade A)) [%] | % of fusion inhibition (cell-cell fusion assay, syncytia count, antibody at 50 ug/ml) (Env BR025.9 (clade C)) [%] | % of fusion inhibition (cell-cell fusion assay, syncytia count, antibody at 50 ug/ml) (Env US715.6 (clade B)) [%] | % of fusion inhibition (cell-cell fusion assay, syncytia count, antibody at 50 ug/ml) (Env NL4-3 (clade B)) [%] | % of fusion inhibition (cell-cell fusion assay, syncytia count, antibody at 50 ug/ml) (Env 89.6 (clade B)) [%] | % of fusion inhibition (cell-cell fusion assay, syncytia count, antibody at 50 ug/ml) (Env HT593.1 (clade B)) [%] |
| --- | --- | --- | --- | --- | --- | --- | --- | --- | --- | --- | --- |
| soluble scFv m6 (scFv, not shown: small tags and cut ends) scFv: VLTQSPGTLSLSAGERATLSCRASQSVSSGSLAWYQQKPGQAPRLLIYGASTRATGIPDRFSGSGSGTDFTLTIGRLEPEDLAVYYCQQYGTSPYTFGQGTKLEIKRTGGGGSSGGASGGGGSVRLLEQSGAEVKKPGSSVQVSCKASGGTFSMYGVNWVRQAPGHGLEWMGGIIPIFGTSNYAQKFRGRVTFTADQATSTAYMELTNLRSDDTAVYYCARDFGPDWEDGDSYDGSGRGFFDFWGQGTLVTVSS | 83 | 37 | 48 | 66 | 72 | 56 | 57 | 27 | 100 | 98 | 50 |
| Fab X5 (Fab, V domains shown) VH: VQLLEQSGAEVKKPGSSVQVSCKASGGTFSMYGFNWVRQAPGHGLEWMGGIIPIFGTSNYAQKFRGRVTFTADQATSTAYMELTNLRSDDTAVYYCARDFGPDWEDGDSYDGSGRGFFDFWGQGTLVTVSS VL: ELVLTQSPGTLSLSAGERATLSCRASQSVSSGSLAWYQQKPGQAPRLLIYGASTRATGIPDRFSGSGSGTDFTLTIGRLEPEDLAVYYCQQYGTSPYTFGQGTKLEIKR | 72 | 37 | 19 | 34 | 43 | 45 | 71 | 56 | 83 | 93 | 27 |
